# Measurements taken from publication PMC7363588, “Mapping of the FGF14:Nav1.6 complex interface reveals FLPK as a functionally active peptide modulating excitability” (Physiological Reports, 2020).
# T1: FGF14-1b (aa 64-252), purified recombinant (human) (UniProt Q92915)
# T1 sequence: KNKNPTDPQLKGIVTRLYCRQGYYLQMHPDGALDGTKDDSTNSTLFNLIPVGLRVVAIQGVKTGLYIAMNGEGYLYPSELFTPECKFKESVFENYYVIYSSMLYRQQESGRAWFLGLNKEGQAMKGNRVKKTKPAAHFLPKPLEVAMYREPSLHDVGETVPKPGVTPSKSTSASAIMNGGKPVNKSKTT
# B1: FLPK tetrapeptide (peptide)
# peptide: FLPK
# Key:
# Nav channels = settings: peptide sequences derived from the LITFILKK motif of Navβ4 cytoplasmic tail; ref Grieco, Malhotra, Chen, Isom, & Raman, 2005; White et al., 2019; cited from earlier work
# Source text: The presence of other accessory proteins that directly interact with Nav1.6 in the native system may contribute to the reported activity of FLPK. A critical determinant required for repetitive firing in MSN and Purkinje neurons is the Navβ4 accessory subunit (Ji et al., 2017; White et al., 2019).
# [1] = target: T1, FGF14-1b (aa 64-252), purified recombinant (human); assay: SPR; Biacore T100, 25°C; FGF14 (RU 16,000), FGF14 V160A (RU 18,000) or Nav1.6 C-tail (RU 12,000) amine-coupled on CM5 chip; peptides 1-100 µM in HBS-P+ at 50 µl/min, 180 s association, 180 s dissociation; 1:1 binding model
molecule,measurement,setting,value
LITFILKK,effect on fast inactivation and Na^+ currents,Nav channels,prevent stable fast inactivation and generate resurgent and persistent Na^+ currents through a voltage‐dependent open‐channel block
B1,koff,[1],0.000431 s⁻¹
same,kon,[1],84.4 M⁻¹ s⁻¹
